Assay results reported in paper PMC3290565.

The sequences below were run against T1, NalC-His (Pseudomonas aeruginosa K767) (UniProt Q9HXS0) (assay: EMSA).
T1 sequence: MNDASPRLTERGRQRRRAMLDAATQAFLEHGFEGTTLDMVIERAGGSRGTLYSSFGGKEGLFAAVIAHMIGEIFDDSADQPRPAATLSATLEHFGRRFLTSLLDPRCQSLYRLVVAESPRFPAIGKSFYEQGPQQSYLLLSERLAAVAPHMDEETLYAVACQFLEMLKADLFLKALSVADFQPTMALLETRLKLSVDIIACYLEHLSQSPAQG
“CTAACGAGAAACGCTCTCAGCAAACCGCCTGGAGGCTTGAACGGACCGTCCCGACGGCCCACCATGCGCACCTTCCGACCGCCACCCCGCGAGGCCCGATACCGCTC (double strand) [PA3720-proximal fragment (endpoints II)]” was tested, and the binding was “binds”.
“GAGCGGTATCGGGCCTCGCGGGGTGGCGGTCGGAAGGTGCGCATGGTGGGCCGTCGGGACGGTCCGTTCAAGCCTCCAGGCGGTTTGCTGAGAGCGTTTCTCGTTAGGGTTGACGCTGGTCATTTAAGAACTGTATCGTACAGTACTGTTTTGGCAAGCACTTCCGCTCATTCCTCCGCCTTGCCTCCCCGCAGGAGTCCCCCCA (double strand) [nalC-PA3720 intergenic region]” was tested, and the binding was “binds”.
In the case of “TTAGGGTTGACGCTGGTCATTTAAGAACTGTATCGTACAGTACTGTTTTGGCAAGCACTTCCGCTCATTCCTCCGCCTTGCCTCCCCGCAGGAGTCCCCCCA (double strand) [PA3720-distal fragment (endpoints I)]”, the binding is reported as “no binding”.
